{
  "source": "paper PMC3252255",
  "about": "“Heterologous overexpression of Glomerella cingulata FAD-dependent glucose dehydrogenase in Escherichia coli and Pichia pastoris” (Microbial Cell Factories, 2011)",
  "molecules": {"B1": {"name": "recGcGDH (recombinant Glomerella cingulata FAD-dependent glucose dehydrogenase) (Colletotrichum gloeosporioides) (protein)", "chain": "RPGSAPRDQAAATAYDYIVIGGGTSGLVVANRLSEDASVSVLVIEAGDSVLNNANVTNANGYGLAFGTDIDYAYQTTAQTYANNASTTLRAAKALGGTSTINGMAYTRAEASQIDAWETVGNEGWNWDALLPYYLKSETFQAPDAERSIKGHISYESDVHGHDGPLYTAYAYGSTNDSYPTSLNATYQALNVPWKEDIAGGSMVGFASYPKTLNQDLNIRWDAARAYYFPYENRTNLKVVLNTTAKKLTWASATNGTDATASGVEITAADGTTSVVTANKEVIISAGALVSPLLLELSGVGNPAWLSQYGIETVVELPTVGENLQDQINNELIYSPPTNFTSTYDSGVGAFVAYPSASHVFGTNESSASEELKSQLTAYADTVAIANGNVTKASDLLDFFQLQYDLIFKDQVPFAEVLIYIAKGSWGAEYWGLLPFSRGSIHISQANSTAGALINPNYFMLDYDVELQVATAKFIRSVFGTGPFASVAGTETTPGFDVIPADADEATWKSWATKEYRSNFHPVATAAMLPKEKGGVVDAQLKVYGTTNVRVVDASVLPFQVCGHLVSTLYAVAEKASDLIKAAA", "notes": "native stop codon in primer, no tag; glycosylated, 88-131 kDa on SDS-PAGE, 67 kDa deglycosylated"}},
  "key": {"[1]": {"target": "T1, recGcGDH (recombinant Glomerella cingulata FAD-dependent glucose dehydrogenase) (Colletotrichum gloeosporioides, UniProt G8E4B5)", "T1 construct": "gene gdh; native stop codon in primer, no tag; glycosylated, 88-131 kDa on SDS-PAGE, 67 kDa deglycosylated", "T1 sequence (G8E4B5 17-600)": "B1 chain", "assay": "UV/Vis absorption spectrum of purified enzyme, oxidized and glucose-reduced", "type": "binding", "conditions": "50 mM citrate pH 5.5, room temperature; FAD bound as purified"}, "[2]": {"substrate": "OC[C@H]1OC(O)[C@H](O)[C@@H](O)[C@@H]1O", "assay": "steady-state kinetics, spectrophotometric ferrocenium reduction", "type": "biochemical, Colletotrichum gloeosporioides", "conditions": "pH 5.5, 30°C, ferrocenium hexafluorophosphate as electron acceptor (20 μM in table, 200 μM in methods), also measured at pH 7.5", "source_text": "steady-state kinetics, spectrophotometric ferrocenium reduction on recGcGDH (recombinant Glomerella cingulata FAD-dependent glucose dehydrogenase)"}},
  "data": [
    {"molecule": "Cc1cc2nc3c(=O)[nH]c(=O)nc-3n(C[C@H](O)[C@H](O)[C@H](O)COP(=O)(O)OP(=O)(O)OC[C@H]3O[C@@H](n4cnc5c(N)ncnc54)[C@H](O)[C@@H]3O)c2cc1C", "note": "[FAD]", "values": [
      {"measurement": "UV/Vis absorption spectrum of purified enzyme, oxidized and glucose-reduced", "setting": "[1]", "result": "typical flavoprotein spectrum shows the same characteristics as the spectrum of wild-type GcGDH"}
    ]},
    {"molecule": "B1", "values": [
      {"measurement": "Km", "setting": "[2]", "result": "10.1 ± 0.4", "unit": "mM"},
      {"measurement": "kcat", "setting": "[2]", "result": "179 ± 4", "unit": "s⁻¹"},
      {"measurement": "kcat/Km", "setting": "[2]", "result": 17700, "unit": "M⁻¹ s⁻¹"}
    ]}
  ]
}
